From patent publication US20060259987A1 (UNIVERSITY OF UTAH RESEARCH FOUNDATION, published 2006)
Residue numbers refer to the chain shown, from its start. Numbers in names are those of the source. Each block holds one binder with its values, some of them ahead of it.

Tests used:
human factor Xa = human factor Xa (human, UniProt P00742 41-179; P00742 235-488, limits assumed); assay: cell-based or functional assay
[1] = target: T1, human neutrophil cathepsin G (human, UniProt P08311 21-244); assay: cell-based or functional assay
T1 sequence (looked up): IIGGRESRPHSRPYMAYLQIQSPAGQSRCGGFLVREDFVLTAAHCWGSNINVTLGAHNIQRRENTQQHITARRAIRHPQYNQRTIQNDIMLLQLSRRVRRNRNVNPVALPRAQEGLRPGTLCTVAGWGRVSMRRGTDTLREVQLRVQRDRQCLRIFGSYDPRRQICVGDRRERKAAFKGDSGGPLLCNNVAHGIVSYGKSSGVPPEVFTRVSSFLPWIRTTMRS

[2] = target: T2, human neutrophil elastase (human, UniProt P08246 30-247, limits assumed); assay: cell-based or functional assay
T2 sequence (looked up): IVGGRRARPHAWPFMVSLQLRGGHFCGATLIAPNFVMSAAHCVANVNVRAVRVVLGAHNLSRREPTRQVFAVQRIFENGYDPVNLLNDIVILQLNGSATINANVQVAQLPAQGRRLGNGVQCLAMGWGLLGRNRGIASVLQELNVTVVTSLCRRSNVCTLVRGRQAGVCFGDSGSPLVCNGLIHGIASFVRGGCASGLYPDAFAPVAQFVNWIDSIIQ

human thrombin = human thrombin (human, UniProt P00734 328-622); assay: cell-based or functional assay
thrombin [3] = target: T3, thrombin (human, UniProt P00734 328-622); assay: heparin cofactor assay, HCA expt #2; ATIII titrated on 10 nM thrombin + 50 ug/ml UFH, chromogenic readout
Description: (§1) After 3 minutes, the reactions were quenched with polybrene and chromogenic substrate S2238 (thrombin) or S2765 (fXa), and the initial rate of chromophore production (405 nm) recorded to obtain a measurement residual, uninhibited thrombin or factor Xa. IC50s were determined from plots of ATIII concentration vs. percent residual target enzyme activity.

factor Xa [4] = target: T4, factor Xa (human, UniProt P00742 41-179; P00742 235-488, limits assumed); assay: cell-based or functional assay
T4 sequence (P00742 41-179 limits assumed, form in doubt, chain 1 of 2): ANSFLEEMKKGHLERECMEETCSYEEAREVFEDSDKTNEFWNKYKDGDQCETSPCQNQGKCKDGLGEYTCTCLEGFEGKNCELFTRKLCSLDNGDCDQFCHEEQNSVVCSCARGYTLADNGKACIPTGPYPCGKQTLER
T4 sequence (P00742 235-488 limits assumed, form in doubt, chain 2 of 2): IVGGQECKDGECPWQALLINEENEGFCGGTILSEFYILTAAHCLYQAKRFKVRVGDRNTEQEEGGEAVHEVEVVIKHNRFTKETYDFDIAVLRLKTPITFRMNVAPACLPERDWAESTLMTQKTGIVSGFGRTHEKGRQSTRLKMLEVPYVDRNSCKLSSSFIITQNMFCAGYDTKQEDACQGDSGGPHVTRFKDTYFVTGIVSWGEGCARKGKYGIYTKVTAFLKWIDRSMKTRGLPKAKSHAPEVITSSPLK

thrombin [5] = target: T3, thrombin; assay: cell-based or functional assay
factor Xa [6] = target: T4, factor Xa; assay: heparin cofactor assay, HCA expt #2; ATIII titrated on 10 nM fXa + 50 ug/ml UFH, chromogenic readout
Description: as §1

Chain of human factor Xa (P00742 41-179 limits assumed, chain 1 of 2): as the sequence (P00742 41-179 limits assumed, form in doubt, chain 1 of 2) above
Chain of human factor Xa (P00742 235-488 limits assumed, chain 2 of 2): as the sequence (P00742 235-488 limits assumed, form in doubt, chain 2 of 2) above

IC50 fXa/UFH (HCA #5) (human factor Xa): 15 nM
IC50 fXa/UFH (HCA #6) (human factor Xa): 19 nM
rsd Xa, no add (CA #51, stg 1 conc 200) (human factor Xa): 1%
rsd IIa, catG (CA #51, stg 1 conc 200) [1]: 3%
rsd Xa, catG (CA #51, stg 1 conc 200) [1]: -2%
rsd IIa, HNE (CA #51, stg 1 conc 200) [2]: 3%
rsd Xa, HNE (CA #51, stg 1 conc 200) [2]: 1%
IC50 IIa/UFH (HCA #5) (human thrombin): 150 nM
IC50 IIa/UFH (HCA #6) (human thrombin): 140 nM
rsd IIa, no add (CA #51, stg 1 conc 200) (human thrombin): 2%
B1: LEAQ.501 (other)
chain: SPVDICTAKPRDIPMNPMCIYRSPEKKATEDEGSEQKIPEATNRRVWELSKANSRFATTFYQHLADSKNDNDNIFLSPLSISTAFAMTKLGACNDTLQQLMEVFKFDTISEKTSDQIHFFFAKLNCRLYRKANKASKLVSANRLFGDKSLTFNETYQDISELVYGAKLQPLDFKENAEQSRAAINKWVSNKTEGRITDVIPSEAINELTVLVLVNTIYFKGLWKSKFSPENTRKELFYKADGESCSASMMYQEGKFRYRRVAEGTQVLELPFKGDDITMVLILPKPEKSLAKVEKELTPEVLQEWLDELEEMMLVVHMPRFRIEDGFSLKEQLQDMGLVDLFSPEKSKLPGIVAEGRDDLYVSDAFHKAFLEVNEEGSEAAASTALDAQGRSLNPNRVTFKANRPFLVFIREVPLNTIIFMGRVANPCVK

IC50 fXa/UFH (HCA #6) (human factor Xa): 25 nM
IC50 IIa/UFH (HCA #6) (human thrombin): 100 nM
B2: LEAQ.521 (other)
chain: B1 chain with A385H, D387E

IC50 fXa/UFH (HCA #6) (human factor Xa): 25 nM
rsd Xa, no add (CA #52, stg 1 conc 200) (human factor Xa): 3%
rsd IIa, catG (CA #52, stg 1 conc 200) [1]: 5%
rsd Xa, catG (CA #52, stg 1 conc 200) [1]: 1%
rsd IIa, HNE (CA #52, stg 1 conc 200) [2]: 9%
rsd Xa, HNE (CA #52, stg 1 conc 200) [2]: 3%
IC50 IIa/UFH (HCA #6) (human thrombin): 120 nM
rsd IIa, no add (CA #52, stg 1 conc 200) (human thrombin): 4%
B3: LEAQ.516 (other)
chain: B1 chain with A385F, D387E

IC50 fXa/UFH (HCA #6) (human factor Xa): 27 nM
rsd Xa, no add (CA #52, stg 1 conc 200) (human factor Xa): 2%
rsd IIa, catG (CA #52, stg 1 conc 200) [1]: 2%
rsd Xa, catG (CA #52, stg 1 conc 200) [1]: 1%
rsd IIa, HNE (CA #52, stg 1 conc 200) [2]: 3%
rsd Xa, HNE (CA #52, stg 1 conc 200) [2]: 2%
IC50 IIa/UFH (HCA #6) (human thrombin): 65 nM
rsd IIa, no add (CA #52, stg 1 conc 200) (human thrombin): 4%
B4: LEAQ.517 (other)
chain: B1 chain with A385S, D387E

IC50 fXa/UFH (HCA #6) (human factor Xa): 40 nM
IC50 IIa/UFH (HCA #6) (human thrombin): 105 nM
B5: LEAQ.514 (other)
chain: B1 chain with A385V, D387E

IC50 fXa/UFH (HCA #6) (human factor Xa): 18 nM
rsd Xa, no add (CA #52, stg 1 conc 200) (human factor Xa): 2%
rsd IIa, catG (CA #52, stg 1 conc 200) [1]: 3%
rsd Xa, catG (CA #52, stg 1 conc 200) [1]: 1%
rsd IIa, HNE (CA #52, stg 1 conc 200) [2]: 3%
rsd Xa, HNE (CA #52, stg 1 conc 200) [2]: 2%
IC50 IIa/UFH (HCA #6) (human thrombin): 110 nM
rsd IIa, no add (CA #52, stg 1 conc 200) (human thrombin): 5%
B6: LEAQ.515 (other)
chain: B1 chain with A385L, D387E

IC50 (thrombin [3]): 460 nM
rsd. Xa catG; CA expt #7; stg1 conc 200 (factor Xa [4]): 3 % of activity without ATIII
rsd. Xa catG; CA expt #8; stg1 conc 200 (factor Xa [4]): 1 % of activity without ATIII
rsd. Xa hne; CA expt #7; stg1 conc 200 (factor Xa [4]): 2 % of activity without ATIII
rsd. Xa hne; CA expt #8; stg1 conc 200 (factor Xa [4]): 1 % of activity without ATIII
rsd. Xa no add; CA expt #7; stg1 conc 200 (factor Xa [4]): 4 % of activity without ATIII
rsd. Xa no add; CA expt #8; stg1 conc 200 (factor Xa [4]): 1 % of activity without ATIII
rsd. IIa catG; CA expt #7; stg1 conc 200 (thrombin [5]): 5 % of activity without ATIII
rsd. IIa catG; CA expt #8; stg1 conc 200 (thrombin [5]): 8 % of activity without ATIII
rsd. IIa hne; CA expt #7; stg1 conc 200 (thrombin [5]): 3 % of activity without ATIII
rsd. IIa hne; CA expt #8; stg1 conc 200 (thrombin [5]): 16 % of activity without ATIII
rsd. IIa no add; CA expt #7; stg1 conc 200 (thrombin [5]): 5 % of activity without ATIII
rsd. IIa no add; CA expt #8; stg1 conc 200 (thrombin [5]): 5 % of activity without ATIII
IC50 (factor Xa [6]): 45 nM
B7: 13C.432 (other)
chain: B1 chain with A385E, D387E, A388I, Q389A
notes: Made in Drosophila S2 cells (DES) on the S137A background; N-terminus printed as SPVDI---

IC50 fXa/UFH (HCA #5) (human factor Xa): 30 nM
IC50 fXa/UFH (HCA #6) (human factor Xa): 40 nM
rsd Xa, no add (CA #51, stg 1 conc 200) (human factor Xa): -1%
rsd Xa, no add (CA #52, stg 1 conc 200) (human factor Xa): 2%
rsd IIa, catG (CA #51, stg 1 conc 200) [1]: 1%
rsd IIa, catG (CA #52, stg 1 conc 200) [1]: 5%
rsd Xa, catG (CA #51, stg 1 conc 200) [1]: -2%
rsd Xa, catG (CA #52, stg 1 conc 200) [1]: 1%
rsd IIa, HNE (CA #51, stg 1 conc 200) [2]: 54%
rsd IIa, HNE (CA #52, stg 1 conc 200) [2]: 84%
rsd Xa, HNE (CA #51, stg 1 conc 200) [2]: -3%
rsd Xa, HNE (CA #52, stg 1 conc 200) [2]: 92%
IC50 IIa/UFH (HCA #5) (human thrombin): 150 nM
IC50 IIa/UFH (HCA #6) (human thrombin): 130 nM
rsd IIa, no add (CA #51, stg 1 conc 200) (human thrombin): 2%
rsd IIa, no add (CA #52, stg 1 conc 200) (human thrombin): 5%
B8: 13C.511 (other)
chain: B1 chain with D387E, A388I, Q389A
